# Assay results as given in publication PMC9482650, “Quantitative fragmentomics allow affinity mapping of interactomes” (Nature Communications, 2022).
# T1: ARHGEF11, O15085
# T1 sequence (O15085 42-136, limits assumed, looked up): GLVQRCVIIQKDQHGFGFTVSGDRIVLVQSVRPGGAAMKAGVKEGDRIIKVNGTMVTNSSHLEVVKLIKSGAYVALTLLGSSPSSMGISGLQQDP
# T2: NHERF3_3, Q5T2W1
# T2 sequence (Q5T2W1 238-333, limits assumed, looked up): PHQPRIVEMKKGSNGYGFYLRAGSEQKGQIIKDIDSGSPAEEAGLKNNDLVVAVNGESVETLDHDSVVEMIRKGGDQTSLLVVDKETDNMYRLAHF
# T3: RHPN1, Q8TCX5
# T3 sequence (Q8TCX5 508-602, limits assumed, looked up): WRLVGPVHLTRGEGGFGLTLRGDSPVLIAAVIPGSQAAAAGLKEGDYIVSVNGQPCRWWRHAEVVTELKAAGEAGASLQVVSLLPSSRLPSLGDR
# T4: HTRA3, P83110
# T4 sequence (P83110 354-453, limits assumed, looked up): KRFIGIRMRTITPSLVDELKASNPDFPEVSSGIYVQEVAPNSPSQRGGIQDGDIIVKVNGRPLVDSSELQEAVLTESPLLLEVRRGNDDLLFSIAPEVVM
# T5: DLG3_2, Q92796
# T5 sequence (Q92796 221-321, limits assumed, looked up): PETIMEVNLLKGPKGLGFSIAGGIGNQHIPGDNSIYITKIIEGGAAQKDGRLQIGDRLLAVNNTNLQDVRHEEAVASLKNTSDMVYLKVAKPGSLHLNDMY
# T6: LIN7B, Q9HAP6
# T6 sequence (Q9HAP6 88-185, limits assumed, looked up): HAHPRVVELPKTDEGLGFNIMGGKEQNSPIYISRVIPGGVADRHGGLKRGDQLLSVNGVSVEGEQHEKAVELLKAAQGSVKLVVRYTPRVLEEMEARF
# T7: APBA1_1, Q02410
# T7 sequence (Q02410 651-752, limits assumed, looked up): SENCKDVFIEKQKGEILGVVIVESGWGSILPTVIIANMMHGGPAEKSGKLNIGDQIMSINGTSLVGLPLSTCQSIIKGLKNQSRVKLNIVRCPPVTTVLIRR
# T8: SNTA1, Q13424
# T8 sequence (Q13424 82-180, limits assumed, looked up): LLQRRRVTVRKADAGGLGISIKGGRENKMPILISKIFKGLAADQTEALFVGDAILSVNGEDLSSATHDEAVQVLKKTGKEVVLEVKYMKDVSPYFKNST
# T9: FRMPD1, Q5SYB0
# T9 sequence (Q5SYB0 52-145, limits assumed, looked up): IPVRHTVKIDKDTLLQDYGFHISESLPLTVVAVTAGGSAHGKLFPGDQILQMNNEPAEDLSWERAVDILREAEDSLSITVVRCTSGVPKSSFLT
# What was measured:
# Experiment in all cases: holdup assay
# Design in all cases: key: below the threshold = too weak to quantify, mostly under pKd 3.1 to 4
# Conditions in all cases: plain residues with an end cap or a label only (N-terminal biotin on a linker: ado-ado)
# [1] = target: MAGI3_2, Q5TCQ9
# Chain of MAGI3_2, Q5TCQ9 (Q5TCQ9 398-503): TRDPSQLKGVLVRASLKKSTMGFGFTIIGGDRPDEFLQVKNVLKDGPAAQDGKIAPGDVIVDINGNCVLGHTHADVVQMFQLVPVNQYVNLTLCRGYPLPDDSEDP
# [2] = target: T1, ARHGEF11, O15085
# [3] = target: Inadl_6, Q8NI35
# Chain of Inadl_6, Q8NI35 (Q8NI35 1058-1167): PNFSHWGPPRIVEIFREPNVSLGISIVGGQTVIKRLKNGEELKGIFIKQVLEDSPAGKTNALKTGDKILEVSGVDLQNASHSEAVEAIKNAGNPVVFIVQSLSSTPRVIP
# [4] = target: T2, NHERF3_3, Q5T2W1
# [5] = target: MAST2, Q6P0Q8
# Chain of MAST2, Q6P0Q8 (Q6P0Q8 1099-1202): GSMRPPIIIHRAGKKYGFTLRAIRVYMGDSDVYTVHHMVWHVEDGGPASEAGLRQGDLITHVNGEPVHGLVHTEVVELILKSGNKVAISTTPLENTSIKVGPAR
# [6] = target: FRMPD2_1, Q68DX3
# Chain of FRMPD2_1, Q68DX3 (Q68DX3 770-861): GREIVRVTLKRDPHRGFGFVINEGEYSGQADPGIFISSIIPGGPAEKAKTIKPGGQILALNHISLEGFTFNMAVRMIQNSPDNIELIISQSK
# [7] = target: LNX1_2, Q8TBB1
# Chain of LNX1_2, Q8TBB1 (Q8TBB1 371-470): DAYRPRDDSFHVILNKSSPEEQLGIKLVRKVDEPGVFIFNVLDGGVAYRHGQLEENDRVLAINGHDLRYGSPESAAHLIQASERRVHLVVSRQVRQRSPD
# [8] = target: LNX1_3, Q8TBB1
# Chain of LNX1_3, Q8TBB1 (Q8TBB1 500-596): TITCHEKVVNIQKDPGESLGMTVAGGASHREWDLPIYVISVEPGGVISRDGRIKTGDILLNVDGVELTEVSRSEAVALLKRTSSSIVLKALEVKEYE
# [9] = target: Inadl_8, Q8NI35
# Chain of Inadl_8, Q8NI35 (Q8NI35 1425-1530): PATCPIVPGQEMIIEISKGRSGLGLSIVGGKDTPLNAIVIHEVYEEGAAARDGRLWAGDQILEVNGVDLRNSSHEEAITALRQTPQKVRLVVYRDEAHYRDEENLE
# [10] = target: GIPC2, Q8TF65
# Chain of GIPC2, Q8TF65 (Q8TF65 112-203): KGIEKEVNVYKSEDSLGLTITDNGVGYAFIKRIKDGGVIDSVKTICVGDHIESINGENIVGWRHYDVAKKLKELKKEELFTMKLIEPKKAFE
# [11] = target: T3, RHPN1, Q8TCX5
# [12] = target: Inadl_1, Q8NI35
# Chain of Inadl_1, Q8NI35 (Q8NI35 113-229): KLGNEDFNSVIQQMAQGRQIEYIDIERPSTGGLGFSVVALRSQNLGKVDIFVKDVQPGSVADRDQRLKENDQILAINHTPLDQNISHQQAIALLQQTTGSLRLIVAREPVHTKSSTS
# [13] = target: Inadl_4, Q8NI35
# Chain of Inadl_4, Q8NI35 (Q8NI35 547-651): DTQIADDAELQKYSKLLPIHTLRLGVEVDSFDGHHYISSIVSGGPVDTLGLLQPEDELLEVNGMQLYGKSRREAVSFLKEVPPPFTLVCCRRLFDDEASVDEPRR
# [14] = target: PARD3_3, Q8TEW0
# Chain of PARD3_3, Q8TEW0 (Q8TEW0 582-685): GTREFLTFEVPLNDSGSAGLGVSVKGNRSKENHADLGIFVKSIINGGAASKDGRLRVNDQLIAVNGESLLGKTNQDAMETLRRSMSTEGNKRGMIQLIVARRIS
# [15] = target: NHERF4_4, Q86UT5
# Chain of NHERF4_4, Q86UT5 (Q86UT5 464-550): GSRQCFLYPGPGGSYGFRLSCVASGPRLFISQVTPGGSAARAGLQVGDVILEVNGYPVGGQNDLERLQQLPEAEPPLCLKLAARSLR
# [16] = target: Inadl_10, Q8NI35
# Chain of Inadl_10, Q8NI35 (Q8NI35 1673-1763): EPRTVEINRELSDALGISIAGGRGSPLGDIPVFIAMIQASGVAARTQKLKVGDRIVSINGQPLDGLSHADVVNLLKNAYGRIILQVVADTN
# [17] = target: MAGI2_3, Q86UL8
# Chain of MAGI2_3, Q86UL8 (Q86UL8 600-682): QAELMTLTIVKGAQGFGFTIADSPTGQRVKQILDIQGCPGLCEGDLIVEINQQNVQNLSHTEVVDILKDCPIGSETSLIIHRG
# [18] = target: DLG4_2, P78352
# Chain of DLG4_2, P78352 (P78352 155-259): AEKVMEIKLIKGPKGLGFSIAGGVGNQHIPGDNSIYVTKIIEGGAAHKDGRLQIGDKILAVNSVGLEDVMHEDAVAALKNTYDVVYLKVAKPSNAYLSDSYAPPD
# [19] = target: FRMPD2_3, Q68DX3
# Chain of FRMPD2_3, Q68DX3 (Q68DX3 1073-1166): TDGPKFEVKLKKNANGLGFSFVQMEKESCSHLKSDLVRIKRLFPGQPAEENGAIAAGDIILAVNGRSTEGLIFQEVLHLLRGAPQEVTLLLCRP
# [20] = target: T4, HTRA3, P83110
# [21] = target: T5, DLG3_2, Q92796
# [22] = target: GOPC, Q9HD26
# [23] = target: GORASP1, Q9BQQ3
# Chain of GORASP1, Q9BQQ3 (Q9BQQ3 1-208): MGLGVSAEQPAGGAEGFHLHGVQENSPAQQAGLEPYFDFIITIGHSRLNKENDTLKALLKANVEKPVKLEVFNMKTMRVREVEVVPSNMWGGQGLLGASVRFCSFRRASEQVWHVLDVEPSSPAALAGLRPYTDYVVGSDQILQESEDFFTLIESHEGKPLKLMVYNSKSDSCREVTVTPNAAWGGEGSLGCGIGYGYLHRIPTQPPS
# [24] = target: T6, LIN7B, Q9HAP6
# [25] = target: MAGI1_2, Q96QZ7
# Chain of MAGI1_2, Q96QZ7 (Q96QZ7 456-580): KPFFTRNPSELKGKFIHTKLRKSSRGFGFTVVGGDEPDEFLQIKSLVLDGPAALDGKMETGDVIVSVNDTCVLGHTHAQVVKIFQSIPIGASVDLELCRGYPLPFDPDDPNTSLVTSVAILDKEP
# [26] = target: T7, APBA1_1, Q02410
# [27] = target: T8, SNTA1, Q13424
# [28] = target: T9, FRMPD1, Q5SYB0
Binder,pKd [1],pKd [2],pKd [3],pKd [4],pKd [5],pKd [6],pKd [7],pKd [8],pKd [9],pKd [10],pKd [11],pKd [12],pKd [13],pKd [14],pKd [15],pKd [16],pKd [17],pKd [18],pKd [19],pKd [20],further results
"DTTVPESEDL [MYOZ2, Q9NPC6]",below the threshold,3.7,below the threshold,below the threshold,4.7,below the threshold,below the threshold,below the threshold,below the threshold,below the threshold,below the threshold,below the threshold,below the threshold,below the threshold,below the threshold,below the threshold,below the threshold,below the threshold,below the threshold,below the threshold,pKd [21]: below the threshold; pKd [22]: below the threshold; pKd [23]: below the threshold; pKd [24]: below the threshold; pKd [25]: below the threshold; pKd [26]: below the threshold; pKd [27]: below the threshold; pKd [28]: below the threshold
"SAKVRTVTSV [RASL11B, Q9BPW5]",5.74,4.45,below the threshold,below the threshold,5.3,below the threshold,3.92,below the threshold,4.43,below the threshold,3.83,below the threshold,below the threshold,below the threshold,3.91,below the threshold,4.25,5.08,below the threshold,below the threshold,pKd [21]: 4.78; pKd [22]: 4.07; pKd [23]: 3.76; pKd [24]: below the threshold; pKd [25]: 5.51; pKd [26]: below the threshold; pKd [27]: below the threshold; pKd [28]: below the threshold
"NHSSSPETTA [TRMT13, Q9NUP7]",below the threshold,below the threshold,below the threshold,below the threshold,below the threshold,below the threshold,below the threshold,below the threshold,below the threshold,below the threshold,below the threshold,below the threshold,below the threshold,below the threshold,below the threshold,below the threshold,below the threshold,below the threshold,below the threshold,below the threshold,pKd [21]: 4.09; pKd [22]: below the threshold; pKd [23]: below the threshold; pKd [24]: below the threshold; pKd [25]: below the threshold; pKd [26]: below the threshold; pKd [27]: below the threshold; pKd [28]: below the threshold
"PDGQCTVTEV [RNF146, Q9NTX7]",4.21,5.09,3.95,below the threshold,5.28,below the threshold,3.99,below the threshold,4.13,3.78,4.68,below the threshold,below the threshold,below the threshold,4.02,3.58,3.94,5.07,below the threshold,below the threshold,pKd [21]: 4.98; pKd [22]: 4.04; pKd [23]: below the threshold; pKd [24]: below the threshold; pKd [25]: 3.53; pKd [26]: below the threshold; pKd [27]: 4.23; pKd [28]: below the threshold
